Source: the supplement of paper PMC10724198
± gives the standard deviation of the averaged measurements.

Test system: Saccharomyces cerevisiae
Experiment: protein stability index of tFT-peptide fusion (C-terminal peptide) (PSI (0-1 scale)); higher = more stable (slower turnover)
Settings: genetic background: das1 deletion; temperature: 30 C
Experimental: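 MPS profiling in S. cerevisiae of the yeast C-terminome library: the last 12 aa of each annotated ORF are fused to the C-terminus of a sfGFP-mCherry timer, after a GGGS linker. Cells are FACS-sorted into 8 mCherry/sfGFP bins and deep-sequenced. PSI runs from 0 (unstable) to 1 (stable); wild type and das1Δ backgrounds, two technical replicates each.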
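For protein stability index of tFT-peptide fusion in deletion strain of DAS1 in this document: PSI is a weighted mean of each variant's read distribution over the sorted stability bins, computed only for variants having over 10 reads in total.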
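For protein stability index of tFT-peptide fusion in wild type in this document: PSI derived as read-weighted mean over the 8 sorting bins, only variants exceeding 10 total reads kept, mCherry placed adjacent to the peptide and sfGFP distal.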

Sequence | protein stability index
VNLDVTEDDKQK [STE20 C-terminal 12 aa] | 0.6857 ± 0.0021
VNPKAKRPSNEK [NOP2 C-terminal 12 aa] | 0.712 ± 0.044
VNRQLEMDLPIE [YKL066W C-terminal 12 aa] | 0.7074 ± 0.0056
VPLGPKPDISRL [GTO1 C-terminal 12 aa] | 0.7047 ± 0.0045
VPNDNNEQRSSQ [SAN1 C-terminal 12 aa] | 0.7041 ± 0.0064
VPRFKDIFDDLS [DOA1 C-terminal 12 aa] | 0.7313 ± 0.0058
VQCVCFNVEMRL [YIL046W-A C-terminal 12 aa] | 0.662 ± 0.015
VQHDPSVHTNQL [MAE1 C-terminal 12 aa] | 0.6923 ± 0.0028
VQNWKPKPFGVL [LAS1 C-terminal 12 aa] | 0.707 ± 0.015
VRDHFGVINSIW [YJL070C C-terminal 12 aa] | 0.715 ± 0.051
VRKDYIALINQY [ADI1 C-terminal 12 aa] | 0.6715 ± 0.0042
VRQVEEDENYDD [CYC8 C-terminal 12 aa] | 0.7 ± 0.024
VRYVIIHRHTST [RMD8 C-terminal 12 aa] | 0.648 ± 0.0073
VSDSEQSDTKGI [UAF30 C-terminal 12 aa] | 0.6733 ± 0.0011
VSLKKGKLKAHC [YAP7 C-terminal 12 aa] | 0.673 ± 0.016
VTAGKAKFVLYN [SUN4 C-terminal 12 aa] | 0.665 ± 0.0087
VTVLRNSQYFFS [RPO41 C-terminal 12 aa] | 0.741 ± 0.039
VVQFLVNLVCHT [YGR114C C-terminal 12 aa] | 0.4879 ± 0.0042
VWCSVKKRLLEK [TIM23 C-terminal 12 aa] | 0.724 ± 0.016
WAKRAFDGQFVK [DAP2 C-terminal 12 aa] | 0.717 ± 0.0086
WEAYLRRCGQQN [URA3 C-terminal 12 aa] | 0.697 ± 0.032
WGIYEELVKRFM [HEM25 C-terminal 12 aa] | 0.7094 ± 0.0066
WKEDADKNAGHK [OCH1 C-terminal 12 aa] | 0.706 ± 0.012
WKLRAKYGIRKD [MGR2 C-terminal 12 aa] | 0.6905 ± 0.0028
WKLYQDYLSGKV [YER134C C-terminal 12 aa] | 0.695 ± 0.014

Sequence | protein stability index
WLDKHTTTEAKP [YJU3 C-terminal 12 aa] | 0.7087 ± 0.0036
WQDFVPDEHISQ [VPS501 C-terminal 12 aa] | 0.736 ± 0.0053
WSTFYYLCRKRE [CRG1 C-terminal 12 aa] | 0.693 ± 0.014
WYLQSVNLRDGV [HOL1 C-terminal 12 aa] | 0.6852 ± 0.005
WYSRKNINSRFE [MTR10 C-terminal 12 aa] | 0.714 ± 0.059
YAKFGDNINLER [GIM3 C-terminal 12 aa] | 0.70175 ± 0.00021
YAWTRGLTNPIC [FEX1 C-terminal 12 aa] | 0.69727 ± 0.00064
YELDGPYMSKRI [ELP3 C-terminal 12 aa] | 0.6788 ± 0.0018
YGANSQQTFEHT [YFR034W-A C-terminal 12 aa] | 0.706 ± 0.011
YIARNQKKGMSI [ECT1 C-terminal 12 aa] | 0.685 ± 0.011
YIKEAQSACNDV [COS12 C-terminal 12 aa] | 0.692 ± 0.018
YKNLRKTSSSHL [NPY1 C-terminal 12 aa] | 0.843 ± 0.028
YKTKYIWERLGK [SPC24 C-terminal 12 aa] | 0.69 ± 0.012
YKTQTGNFQVRL [APM3 C-terminal 12 aa] | 0.706 ± 0.0095
YLERRVRTLKKD [MRPL32 C-terminal 12 aa] | 0.713 ± 0.032
YLVHNNADEKSN [CUZ1 C-terminal 12 aa] | 0.704 ± 0.034
YNDHRLPKRAKK [HSF1 C-terminal 12 aa] | 0.6948 ± 0.0036
YNKLESNLQIFM [ABZ1 C-terminal 12 aa] | 0.697 ± 0.017
YPFTISYISPPY [YPR169W-A C-terminal 12 aa] | 0.71 ± 0.067
YPQQLLGYTDNG [YKL115C C-terminal 12 aa] | 0.628 ± 0.013
YSFNKLTMTILY [YER137W-A C-terminal 12 aa] | 0.6999 ± 0.0014
YSIEVVPHGLIA [GLO1 C-terminal 12 aa] | 0.607 ± 0.0097
YTSKSFSPASSE [YMR181C C-terminal 12 aa] | 0.704 ± 0.031
YVFIVNHAAEQT [NUP116 C-terminal 12 aa] | 0.677 ± 0.024
YVKQQHGQSQND [EAF6 C-terminal 12 aa] | 0.695 ± 0.021

Same assay, conditions: genetic background: wild type; temperature: 30 C

Sequence | protein stability index
VNLDVTEDDKQK [STE20 C-terminal 12 aa] | 0.67 ± 0.04
VNPKAKRPSNEK [NOP2 C-terminal 12 aa] | 0.754 ± 0.042
VNRQLEMDLPIE [YKL066W C-terminal 12 aa] | 0.712 ± 0.042
VPLGPKPDISRL [GTO1 C-terminal 12 aa] | 0.712 ± 0.041
VPNDNNEQRSSQ [SAN1 C-terminal 12 aa] | 0.662 ± 0.011
VPRFKDIFDDLS [DOA1 C-terminal 12 aa] | 0.719 ± 0.0078
VQCVCFNVEMRL [YIL046W-A C-terminal 12 aa] | 0.676 ± 0.091
VQHDPSVHTNQL [MAE1 C-terminal 12 aa] | 0.664 ± 0.029
VQNWKPKPFGVL [LAS1 C-terminal 12 aa] | 0.737 ± 0.059
VRDHFGVINSIW [YJL070C C-terminal 12 aa] | 0.694 ± 0.011
VRKDYIALINQY [ADI1 C-terminal 12 aa] | 0.652 ± 0.01
VRQVEEDENYDD [CYC8 C-terminal 12 aa] | 0.748 ± 0.076
VRYVIIHRHTST [RMD8 C-terminal 12 aa] | 0.599 ± 0.0066
VSDSEQSDTKGI [UAF30 C-terminal 12 aa] | 0.676 ± 0.016
VSLKKGKLKAHC [YAP7 C-terminal 12 aa] | 0.692 ± 0.019
VTAGKAKFVLYN [SUN4 C-terminal 12 aa] | 0.445 ± 0.012
VTVLRNSQYFFS [RPO41 C-terminal 12 aa] | 0.728 ± 0.018
VVQFLVNLVCHT [YGR114C C-terminal 12 aa] | 0.487 ± 0.011
VWCSVKKRLLEK [TIM23 C-terminal 12 aa] | 0.732 ± 0.037
WAKRAFDGQFVK [DAP2 C-terminal 12 aa] | 0.735 ± 0.017
WEAYLRRCGQQN [URA3 C-terminal 12 aa] | 0.658 ± 0.018
WGIYEELVKRFM [HEM25 C-terminal 12 aa] | 0.707 ± 0.013
WKEDADKNAGHK [OCH1 C-terminal 12 aa] | 0.731 ± 0.0062
WKLRAKYGIRKD [MGR2 C-terminal 12 aa] | 0.684 ± 0.02
WKLYQDYLSGKV [YER134C C-terminal 12 aa] | 0.719 ± 0.08

Sequence | protein stability index
WLDKHTTTEAKP [YJU3 C-terminal 12 aa] | 0.705 ± 0.0089
WQDFVPDEHISQ [VPS501 C-terminal 12 aa] | 0.792 ± 0.028
WSTFYYLCRKRE [CRG1 C-terminal 12 aa] | 0.701 ± 0.077
WYLQSVNLRDGV [HOL1 C-terminal 12 aa] | 0.688 ± 0.035
WYSRKNINSRFE [MTR10 C-terminal 12 aa] | 0.712 ± 0.046
YAKFGDNINLER [GIM3 C-terminal 12 aa] | 0.698 ± 0.031
YAWTRGLTNPIC [FEX1 C-terminal 12 aa] | 0.69 ± 0.0087
YELDGPYMSKRI [ELP3 C-terminal 12 aa] | 0.704 ± 0.062
YGANSQQTFEHT [YFR034W-A C-terminal 12 aa] | 0.728 ± 0.026
YIARNQKKGMSI [ECT1 C-terminal 12 aa] | 0.67 ± 0.015
YIKEAQSACNDV [COS12 C-terminal 12 aa] | 0.664 ± 0.03
YKNLRKTSSSHL [NPY1 C-terminal 12 aa] | 0.84 ± 0.031
YKTKYIWERLGK [SPC24 C-terminal 12 aa] | 0.694 ± 0.029
YKTQTGNFQVRL [APM3 C-terminal 12 aa] | 0.722 ± 0.0093
YLERRVRTLKKD [MRPL32 C-terminal 12 aa] | 0.68 ± 0.013
YLVHNNADEKSN [CUZ1 C-terminal 12 aa] | 0.695 ± 0.05
YNDHRLPKRAKK [HSF1 C-terminal 12 aa] | 0.7354 ± 0.0051
YNKLESNLQIFM [ABZ1 C-terminal 12 aa] | 0.744 ± 0.0097
YPFTISYISPPY [YPR169W-A C-terminal 12 aa] | 0.702 ± 0.025
YPQQLLGYTDNG [YKL115C C-terminal 12 aa] | 0.597 ± 0.0073
YSFNKLTMTILY [YER137W-A C-terminal 12 aa] | 0.633 ± 0.026
YSIEVVPHGLIA [GLO1 C-terminal 12 aa] | 0.5946 ± 0.0015
YTSKSFSPASSE [YMR181C C-terminal 12 aa] | 0.668 ± 0.022
YVFIVNHAAEQT [NUP116 C-terminal 12 aa] | 0.659 ± 0.009
YVKQQHGQSQND [EAF6 C-terminal 12 aa] | 0.694 ± 0.022

Test system: Saccharomyces cerevisiae
Experiment: protein stability index of tFT-peptide fusion in deletion strain of DAS1 (PSI (0-1 scale)); higher = more stable (slower turnover)
Settings: not given
Experimental: (§1)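 MPS profiling in S. cerevisiae of two library types built from selected 12-aa C-degron peptides (IN1, IN2, LN1, LN3, VN2, R1-R5, W1-W3, Atg1 and Rpa12 C-termini): saturation mutagenesis libraries and C-terminal +1 capping libraries (13 aa). Each peptide is fused to the C-terminus of a sfGFP-mCherry timer, after a GGGS linker. Cells are FACS-sorted into 8 mCherry/sfGFP bins and sequenced. PSI runs from 0 (unstable) to 1 (stable), measured once in wild type and in the das1Δ or doa10Δ background.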

Sequence | protein stability index
ARHRVGLWRGAS | 0.689
ARWCVGLWRGAS | 0.7
ARWFVGLWRGAS | 0.699
ARWKVGLWRGAS | 0.673
ARWRKGLWRGAS | 0.697
ARWRRGLWRGAS | 0.692
ARWRTGLWRGAS | 0.679
ARWRVDLWRGAS | 0.728
ARWRVGLFRGAS | 0.665
ARWRVGLMRGAS | 0.677
ARWRVGLRRGAS | 0.683
ARWRVGLWRCAS | 0.674
ARWRVGLWRGAF | 0.682
ARWRVGLWRGAM | 0.702
ARWRVGLWRGAW | 0.686
ARWRVGLWRGLS | 0.661

Test system: Saccharomyces cerevisiae
Experiment: protein stability index of tFT-peptide fusion in wild type (PSI (0-1 scale)); higher = more stable (slower turnover)
Settings: genetic background: wild type
Experimental: as §1

Sequence | protein stability index
ARHRVGLWRGAS | 0.603
ARWCVGLWRGAS | 0.357
ARWFVGLWRGAS | 0.345
ARWKVGLWRGAS | 0.32
ARWRKGLWRGAS | 0.657
ARWRRGLWRGAS | 0.55
ARWRTGLWRGAS | 0.474
ARWRVDLWRGAS | 0.214
ARWRVGLFRGAS | 0.655
ARWRVGLMRGAS | 0.596
ARWRVGLRRGAS | 0.672
ARWRVGLWRCAS | 0.114
ARWRVGLWRGAF | 0.603
ARWRVGLWRGAM | 0.531
ARWRVGLWRGAW | 0.68
ARWRVGLWRGLS | 0.119
